For one substance, stoichiometry N results are on record in PMC2811064.

What is called stoichiometry N is a count of units in the complex or per binding partner.

This assay addresses semi-synthetic KcsA^(70,82) channel (UniProt P0A334). The experiment in a line: SDS-PAGE.

In turn, “semi-synthetic KcsA^(70,82) channel (from UniProt P0A334 1-69; P0A334 82-160) (natural protein)” yielded a stoichiometry N of 4.
